We go through two molecules from patent US20120195909A1 (BIONOVION HOLDING B V, published 2012).

In test [1] the target is FLAG-hAPRIL (secreted form, supernatant of 293T cells transfected with pCR3-hAPRIL) (human) (UniProt O75888). Nature of the test: ELISA, FLAG-hAPRIL captured by coated anti-FLAG polyclonal antibody. (ELISA stands for enzyme-linked immunosorbent assay.)
In test [2] the target is T1, FLAG-hAPRIL (secreted form, supernatant of 293T cells transfected with pCR3-hAPRIL) (human, UniProt O75888 110-250, limits assumed).
T1 construct: Used as cell supernatant; also called FLAG-APRIL; soluble APRIL in conditioned medium; not shown: FLAG tag
T1 sequence (looked up): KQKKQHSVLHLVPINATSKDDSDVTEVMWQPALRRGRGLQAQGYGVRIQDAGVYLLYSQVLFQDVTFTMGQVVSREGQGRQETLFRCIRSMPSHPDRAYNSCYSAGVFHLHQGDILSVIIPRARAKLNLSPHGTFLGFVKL
Kind of test: blocking ELISA, FLAG-APRIL supernatant pre-mixed with titrated antibody, binding to coated TACI-Fc (sheet: coated at 1 µg/ml) detected with anti-Flag-HRP [left graph]. On the procedure:
(§1) To study whether the blocking characteristics of hAPRIL.01A and hAPRIL.03A are unique, all known commercially available anti-APRIL antibodies were tested for their ability to block the interaction of FLAG-hAPRIL to BCMA-Fc and TACI-Fc (FIGS. 3A and 3B). Blockade of receptor binding was studied using an ELISA. […] The plate was then washed with PBS/0.2% Tween and then incubated with for 1 hour at 37° C. with 100 μl PBS/5% BSA per well. The plate was then washed four times with PBS/0.2% Tween. In a separate plate APRIL monoclonal antibodies were pre-mixed with APRIL supernatant and incubated for 30 minutes on ice. Conditioned medium containing soluble APRIL was diluted 1 in 4 and mixed with an equal volume of PBS containing the antibodies titrated in doubling dilutions starting with 5 μg/ml. 100 μl of the pre-incubated mix was transferred to the ELISA plate and incubated for 2 hours at 37° C. The plate was then washed four times with PBS/0.2% Tween. Anti-Flag-HRP antibody was then diluted in PBS at a concentration of 1:1000 and then 100 μl of this added to each well and incubated for 1 hour at 37° C. The plate was then washed four times with PBS/0.2% Tween and then 100 μl of ABTS added to each well (the ABTS was diluted to the ratio 10 ml of reagent plus 5 μl of H₂O₂ made immediately before addition). The colour was allowed to develop and then the OD at 405 nm read on an ELISA plate reader. […]

Test [3] deals with T1, FLAG-hAPRIL (secreted form, supernatant …). Kind of test: blocking ELISA: antibody pre-incubated with FLAG-hAPRIL, binding to coated BCMA-Fc (competitor) detected. On the procedure: (§2) Blocking abilities of hAPRIL.01A and hAPRIL.03A were confirmed using purified antibodies. Maxisorp 96-well plates were coated with either BCMA-Fc (R&D Systems) or TACI-Fc (R&D Systems) at 50 ng/well overnight at 4° C. and blocked with 10% Goat serum/PBST for 1 hour at RT. FLAG-hAPRIL containing supernatants were pre-incubated with hAPRIL.01A, hAPRIL.03A, and Aprily-5 antibodies (10 μg/ml high test with 10-fold dilutions in triplicates) for 1 h at RT. Plates were washed with PBST 3 times, and bound FLAG-hAPRIL was detected by incubation with 1 μg/ml anti-FLAG BioM2-biotin antibody (Sigma) and 1:2,000 Streptavidin-HRP (Southern Biotechnology) for 1 hour each at RT. After the final PBST wash, APRIL-bound BCMA-Fc was visualized with OptiEIA TMB substrate (BD Biosciences). […] The concentration of half-maximum inhibition (IC₅₀) was determined for hAPRIL.01A as 1.2 and 0.4 nM for BCMA-Fc and TACI-Fc, respectively. The IC₅₀ for hAPRIL.03A to TACI-Fc was determined as 1.3 nM.

Test [4] shares this target. Nature of the test: blocking ELISA, FLAG-APRIL supernatant pre-mixed with titrated antibody, binding to coated TACI-Fc (sheet: coated at 1 µg/ml) detected with anti-Flag-HRP [right graph]. On the procedure:
as §1

Test [5] addresses T2, Recombinant human APRIL (R&D Systems) (human, UniProt O75888 105-250).
T2 construct: Bought protein; also called recombinant APRIL
T2 sequence (looked up): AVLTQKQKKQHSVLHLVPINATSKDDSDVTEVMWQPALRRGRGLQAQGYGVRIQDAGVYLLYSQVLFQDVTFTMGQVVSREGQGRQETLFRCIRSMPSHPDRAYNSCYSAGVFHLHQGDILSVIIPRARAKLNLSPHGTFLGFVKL
Nature of the test: bio-light interferometry (Octet), antibody amine-coupled to the biosensor, APRIL at 1 and 2 µg/ml, 1:1 global fit; column printed as kobs. On the procedure: (§3) To further characterize the binding characteristics of the antibodies, each was profiled using bio-light interferometry on the Octet system (ForteBio, Menlo Park, Calif.) to elucidate binding kinetics and calculate equilibrium binding constants. This assay was performed by coupling purified hAPRIL.01A and hAPRIL.03A antibodies to amine-reactive biosensors (Fortebio) using standard amine chemistry. Recombinant human APRIL (R&D Systems) binding to and dissociation from the biosensors was then observed at two concentrations, 1 and 2 μg/ml. Specifically, amine-reactive biosensors were pre-wetted by immersing them in wells containing 0.1M MES pH=5 for 2 minutes. The biosensors were then activated using a 0.1M NHS/0.4M EDC mixture for 5 minutes. hAPRIL.01A and hAPRIL.03A antibodies were coupled by immersing the biosensors in a solution of 5 μg/mL of the antibody for 18 minutes. The biosensor surface was quenched using a solution of 1M ethanolamine pH 8.5 for 7 minutes. Biosensors were equilibrated in PBS for 5 minutes. […] Dissociation was measured after transfer of the biosensors into PBS and monitoring of the interferometry signal for 20 minutes. The observed on and off rates (kobs and kd) were fit using a 1:1 binding global fit model, and the equilibrium binding constant KD was calculated (see Table 1).
(BLI is a label-free optical method that tracks binding on a fibre tip over time.)

In test [6] the target is T1, FLAG-hAPRIL (secreted form, supernatant …). Kind of test: blocking ELISA, FLAG-APRIL supernatant pre-mixed with titrated antibody, binding to BCMA-Fc coated at 1 µg/ml detected with anti-Flag-HRP [left graph]. As for the experimental part:
(§4) To study whether the blocking characteristics of hAPRIL.01A and hAPRIL.03A are unique, all known commercially available anti-APRIL antibodies were tested for their ability to block the interaction of FLAG-hAPRIL to BCMA-Fc and TACI-Fc (FIGS. 3A and 3B). Blockade of receptor binding was studied using an ELISA. An ELISA plate was coated with 50 with 100 μl of BCMA-Fc at 1 μg/ml or with 100 μl of TACI-Fc at a concentration of 2 μg/ml in coating buffer and incubated overnight at 4° C. The plate was then washed with PBS/0.2% Tween and then incubated with for 1 hour at 37° C. with 100 μl PBS/5% BSA per well. The plate was then washed four times with PBS/0.2% Tween. In a separate plate APRIL monoclonal antibodies were pre-mixed with APRIL supernatant and incubated for 30 minutes on ice. Conditioned medium containing soluble APRIL was diluted 1 in 4 and mixed with an equal volume of PBS containing the antibodies titrated in doubling dilutions starting with 5 μg/ml. 100 μl of the pre-incubated mix was transferred to the ELISA plate and incubated for 2 hours at 37° C. The plate was then washed four times with PBS/0.2% Tween. Anti-Flag-HRP antibody was then diluted in PBS at a concentration of 1:1000 and then 100 μl of this added to each well and incubated for 1 hour at 37° C. […] The colour was allowed to develop and then the OD at 405 nm read on an ELISA plate reader. […]

The target of test [7] is T2, Recombinant human APRIL (R&D Systems). Nature of the test: bio-light interferometry (Octet), antibody amine-coupled to the biosensor, APRIL at 1 and 2 µg/ml, 1:1 global fit. As for the experimental part:
as §3

The target in test [8] is T1, FLAG-hAPRIL (secreted form, supernatant …). Nature of the test: ELISA, FLAG-hAPRIL captured by coated anti-FLAG polyclonal antibody. As for the experimental part: Protein-based ELISA experiments using purified hAPRIL.01A and hAPRIL.03A antibodies were performed to determine apparent binding affinities (reported as EC₅₀ values). Binding was compared to mouse anti-hAPRIL IgG1 Aprily-5 (Alexis). Maxisorp 96-well immunoplates (Nunc) were coated with either rabbit anti-FLAG polyclonal antibody (Sigma) or BCMA-Fc (R&D Systems) at 50 ng/well in PBS overnight at 4° C. and blocked with 10% Goat serum/PBST for 1 hour at RT. Plates were washed with PBST 3 times and incubated with supernatant (1:4 in PBS) containing FLAG-hAPRIL for 1 hour at RT. Plates were again washed with PBST 3 times and incubated with hAPRIL.01A, hAPRIL.03A, and Aprily-5 antibodies (10 μg/ml high test with 10-fold dilutions in triplicates) for 1 h at RT. After three washes with PBST, bound antibodies were detected with goat anti-mouse IgG-HRP (1:2,000) (Southern Biotechnology) for 1 hour at RT. Plate was washed three times with PBST, and APRIL-reactivity was visualized with OptiEIA TMB substrate (Becton Dickinson). The concentration for half-maximal binding is reported as a measure of relative binding affinity. When FLAG-hAPRIL was captured by the anti-FLAG antibody (FIG. 2A), EC₅₀ values for hAPRIL.01A, hAPRIL.03A and Aprily-5 were calculated as 2.2, 1.4, and 1.7 nM, respectively. […] In contrast, binding of hAPRIL.03A to the APRIL-BCMA complex was observed.

Test [9] has the same target. Nature of the test: blocking ELISA: antibody pre-incubated with FLAG-hAPRIL, binding to coated TACI-Fc (competitor) detected.
Test [10] shares this target. Kind of test: blocking ELISA, FLAG-APRIL supernatant pre-mixed with titrated antibody, binding to BCMA-Fc coated at 1 µg/ml detected with anti-Flag-HRP [right graph]. On the procedure:
as §4

The next test concerns the target T3, mouse APRIL (mouse, UniProt Q9D777 96-241, limits assumed).
T3 sequence (looked up): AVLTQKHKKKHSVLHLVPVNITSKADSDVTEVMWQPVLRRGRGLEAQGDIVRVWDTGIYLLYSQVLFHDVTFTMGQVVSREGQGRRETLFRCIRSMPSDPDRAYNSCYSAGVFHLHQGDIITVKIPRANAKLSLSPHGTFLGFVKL
Kind of test: BIAcore. In general terms: In SPR one partner is held on a chip, and binding of the other changes the refractive index at the surface.

In test [11] the target is T1, FLAG-hAPRIL (secreted form, supernatant …). Kind of test: blocking ELISA, FLAG-hAPRIL pre-incubated with titrated antibody, binding to coated TACI-Fc detected with anti-FLAG. As for the experimental part: as §2

As usually defined, the EC50 is the concentration that produces a half-maximal response. A lower EC50 goes with higher potency in that assay. As for “mouse anti-hAPRIL IgG1 Aprily-5 (Alexis) (antibody)”, the 50% effective concentration (EC50) in test [1] amounted to 1.7 nM.

B1: hAPRIL.01A (antibody, IgG1, V domains shown)
VH: EVQLQQSGPELVKPGASVKMSCKASGYTFTSYVMHWVKQKPGQGLEWIGYINPYNDAPKYNEKFKGKATVTSDKSSGTAYMELSSLTSEDSAVYYCARGLGYALYYAMDYWGQGTSVTVSS
VL: DIVMTQSQKFKSTSVGDRVSVTCKASQNVGNNVAWYQQKAGQSPKALISSASNRDSGVPDRFTGSGSGTDFTLTISNVQSEDLADYFCQQYNIYPFTFGSGTELEIK
notes: Mouse antibody from a hybridoma, IgG1, kappa
The IC50 is the midpoint of a concentration-inhibition curve. Read a low IC50 as higher potency. Usually kon stands for the rate constant with which the complex forms. Usually Kd stands for the constant that tells how readily two partners part at equilibrium. A word on the koff: it is the rate constant with which the complex falls apart. Consider B1, for which the “IC50 (read off the curve)” value in [2] was around 0.7 µg/mL; in test [4] it was around 0.7 µg/mL; in [6], around 0.8 µg/mL; in test [10], around 0.9 µg/mL; in test [11], around 0.2 µg/mL. In addition, the IC50 in test [3] worked out at 1.2 nM; in [9] it was 0.4 nM. Also, the kon in [5] turned out to be 48900 M⁻¹ s⁻¹. Moreover, the Kd in test [7] is 0.753 nM. Also, the koff in [7] is 3.69e-05 s⁻¹. The molecule also gave an EC50 in test [8] of 2.2 nM. Besides, the binding result with mouse APRIL is given as “no binding”.
